From patent CN111423515A (BETA PHARMA INC, dated 2020)

T1: human CD20 on cells (CHO-K1/CD20) (human, UniProt P11836 1-297)
T1 construct: whole, on cells; also called CHO-K1/hCD20; CHO-K1/human CD20
T1 sequence (looked up): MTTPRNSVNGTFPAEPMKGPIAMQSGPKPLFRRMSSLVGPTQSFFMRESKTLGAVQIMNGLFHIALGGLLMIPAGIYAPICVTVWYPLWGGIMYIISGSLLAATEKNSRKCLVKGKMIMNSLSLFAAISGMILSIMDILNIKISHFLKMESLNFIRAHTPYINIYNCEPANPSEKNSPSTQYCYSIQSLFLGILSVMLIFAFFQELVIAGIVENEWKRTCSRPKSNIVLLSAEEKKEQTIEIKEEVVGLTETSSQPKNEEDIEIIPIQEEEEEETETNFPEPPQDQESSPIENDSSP

B1: 重组蛋白CD002 (Fc fusion)
chain: EEELQVIQPDKSVSVAAGESAILHCTVTSLFPVGPIQWFRGAGPARELIYNQRQGPFPRVTTVSETTKRENMDFSISISAITPADAGTYYCVKFRKGSPDTEFKSGAGTELSVRAKPS
notes: Control recombinant protein; the format is not described; not shown: not described
B2: 9020-1RP-1C1 (bispecific antibody)
heavy: not shown
light: QIVLSQSPAILSASPGEKVTMTCRASSSVSYIHWFQQKPGSSPKPWIYATSNLASGVPVRFSGSGSGTSYSLTISRVEAEDAATYYCQQWTSNPPTFGGGTKLEIK
notes: not shown: light chain constant region of the CD20 antibody
B3: 9020-1RP-1C2 (bispecific antibody)
heavy: not shown
light: B2 light
notes: linker changed; not shown: light chain constant region of the CD20 antibody
B4: 9020-6RP (bispecific antibody)
heavy: QVQLQQPGAELVKPGASVKMSCKASGYTFTSYNMHWVKQTPGRGLEWIGAIYPGNGDTSYNQKFKGKATLTADKSSSTAYMQLSSLTSEDSAVYYCARSTYYGGDWYFNVWGAGTTVTVSA
light: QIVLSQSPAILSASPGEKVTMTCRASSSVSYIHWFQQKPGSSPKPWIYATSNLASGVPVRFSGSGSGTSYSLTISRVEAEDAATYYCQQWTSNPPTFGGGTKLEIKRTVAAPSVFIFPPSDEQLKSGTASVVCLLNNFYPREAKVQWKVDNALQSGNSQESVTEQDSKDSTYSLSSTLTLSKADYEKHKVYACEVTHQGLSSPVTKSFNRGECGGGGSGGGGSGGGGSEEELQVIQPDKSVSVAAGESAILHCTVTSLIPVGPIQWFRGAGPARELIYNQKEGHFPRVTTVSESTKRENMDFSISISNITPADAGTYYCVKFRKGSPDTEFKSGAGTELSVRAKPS
notes: Bispecific light chain co-transfected with the CD20 antibody heavy chain; not shown: IgG1 constant region

Tests used:
hCD47-his = molecular target: T2, hCD47-his (human, UniProt Q08722 19-139); experiment: ELISA, hCD47-his coated
T2 construct: Bought protein coated on the ELISA plate; also called Cat#CD7-H5227; not shown: his tag

[1] = molecular target: T1, human CD20 on cells (CHO-K1/CD20); experiment: flow cytometry on CHO-K1/CD20 cells
[2] = molecular target: T3, human CD47 on cells (CHO-K1/hCD47; human red blood cells RBC) (human, UniProt Q08722 19-323); experiment: flow cytometry, RBC mixed 20:1 with Raji, 10 μg/mL
T3 construct: whole, on cells; also called CHO-K1/human CD47; 红细胞
T3 sequence (Q08722 19-323): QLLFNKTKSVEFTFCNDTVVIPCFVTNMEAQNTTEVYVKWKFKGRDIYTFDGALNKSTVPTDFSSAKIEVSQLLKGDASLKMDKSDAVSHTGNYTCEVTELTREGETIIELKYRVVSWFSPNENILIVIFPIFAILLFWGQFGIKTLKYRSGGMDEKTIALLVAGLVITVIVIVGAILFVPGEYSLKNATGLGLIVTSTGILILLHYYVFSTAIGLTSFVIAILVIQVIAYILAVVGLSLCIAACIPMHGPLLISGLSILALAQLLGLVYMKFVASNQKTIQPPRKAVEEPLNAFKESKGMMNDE

T2 sequence (Q08722 19-139 limits assumed): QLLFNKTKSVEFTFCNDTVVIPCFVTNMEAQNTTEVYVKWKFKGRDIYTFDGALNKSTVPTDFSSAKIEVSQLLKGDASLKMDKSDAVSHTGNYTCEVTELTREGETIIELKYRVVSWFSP

Row | Binder | binding result (hCD47-his) | binding result [1] | binding result [2]
1 | B1 | binds | – | –
2 | B2 | – | binds | binds
3 | B3 | – | binds | binds
4 | B4 | – | binds | –
